Measured values published in patent US20140161803A1, “CONSTITUTIVELY ACTIVE UPAR VARIANTS AND THEIR USE FOR THE GENERATION AND ISOLATION OF INHIBITORY ANTIBODIES” (IFOM Fondazione Istituo FIRC di Oncologia Molecolare, priority 2011, published 2014).

Target: wild-type human uPAR (human) (UniProt Q03405)
Experiment: cell-based or functional assay

Chain of wild-type human uPAR (human) (Q03405 23-305): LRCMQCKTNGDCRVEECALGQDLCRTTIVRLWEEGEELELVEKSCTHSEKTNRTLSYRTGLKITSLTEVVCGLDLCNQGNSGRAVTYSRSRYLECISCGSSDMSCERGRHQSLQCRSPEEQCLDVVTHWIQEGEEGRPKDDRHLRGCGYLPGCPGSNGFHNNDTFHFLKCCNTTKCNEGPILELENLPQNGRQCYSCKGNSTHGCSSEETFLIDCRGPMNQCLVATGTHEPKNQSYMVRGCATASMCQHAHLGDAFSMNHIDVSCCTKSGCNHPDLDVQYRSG

% max inhibition (pro-uPA pre-treat.) | % max inhibition (veh. pre-treat.) | IC50 (pro-uPA pre-treat.) | Substance
21% | 65% |  | R2 (antibody)
100% | 100% | 800 nM | Somatomedin B domain of VN (from UniProt P04004 20-63) (ligand)
